According to IntAct's records for PubMed 29892012:

B1: TBC1 domain family member 22B (Homo sapiens), Q9NU19 (parent)
chain: MAAENSKQFWKRSAKLPGSIQPVYGAQHPPLDPRLTKNFIKERSKVNTVPLKNKKASSFHEFARNTSDAWDIGDDEEEDFSSPSFQTLNSKVALATAAQVLENHSKLRVKPERSQSTTSDVPANYKVIKSSSDAQLSRNSSDTCLRNPLHKQQSLPLRPIIPLVARISDQNASGAPPMTVREKTRLEKFRQLLSSQNTDLDELRKCSWPGVPREVRPITWRLLSGYLPANTERRKLTLQRKREEYFGFIEQYYDSRNEEHHQDTYRQIHIDIPRTNPLIPLFQQPLVQEIFERILFIWAIRHPASGYVQGINDLVTPFFVVFLSEYVEEDVENFDVTNLSQDMLRSIEADSFWCMSKLLDGIQDNYTFAQPGIQKKVKALEELVSRIDEQVHNHFRRYEVEYLQFAFRWMNNLLMRELPLRCTIRLWDTYQSEPEGFSHFHLYVCAAFLIKWRKEILDEEDFQGLLMLLQNLPTIHWGNEEIGLLLAEAYRLKYMFADAPNHYRR
B2: Centrosomal protein POC5 (Homo sapiens), Q8NA72 (parent)
chain: MSSDEEKYSLPVVQNDSSRGSSVSSNLQEEYEELLHYAIVTPNIEPCASQSSHPKGELVPDVRISTIHDILHSQGNNSEVRETAIEVGKGCDFHISSHSKTDESSPVLSPRKPSHPVMDFFSSHLLADSSSPATNSSHTDAHEILVSDFLVSDENLQKMENVLDLWSSGLKTNIISELSKWRLNFIDWHRMEMRKEKEKHAAHLKQLCNQINELKELQKTFEISIGRKDEVISSLSHAIGKQKEKIELMRTFFHWRIGHVRARQDVYEGKLADQYYQRTLLKKVWKVWRSVVQKQWKDVVERACQARAEEVCIQISNDYEAKVAMLSGALENAKAEIQRMQHEKEHFEDSMKKAFMRGVCALNLEAMTIFQNRNDAGIDSTNNKKEEYGPGVQGKEHSAHLDPSAPPMPLPVTSPLLPSPPAAVGGASATAVPSAASMTSTRAASASSVHVPVSALGAGSAATAASEEMYVPRVVTSAQQKAGRTITARITGRCDFASKNRISSSLAIMGVSPPMSSVVVEKHHPVTVQTIPQATAAKYPRTIHPESSTSASRSLGTRSAHTQSLTSVHSIKVVD
B3: Heterogeneous nuclear ribonucleoprotein F (Homo sapiens), P52597 (parent)
chain: MMLGPEGGEGFVVKLRGLPWSCSVEDVQNFLSDCTIHDGAAGVHFIYTREGRQSGEAFVELGSEDDVKMALKKDRESMGHRYIEVFKSHRTEMDWVLKHSGPNSADSANDGFVRLRGLPFGCTKEEIVQFFSGLEIVPNGITLPVDPEGKITGEAFVQFASQELAEKALGKHKERIGHRYIEVFKSSQEEVRSYSDPPLKFMSVQRPGPYDRPGTARRYIGIVKQAGLERMRPGAYSTGYGGYEEYSGLSDGYGFTTDLFGRDLSYCLSGMYDHRYGDSEFTVQSTTGHCVHMRGLPYKATENDIYNFFSPLNPVRVHIEIGPDGRVTGEADVEFATHEEAVAAMSKDRANMQHRYIELFLNSTTGASNGAYSSQVMQGMGVSAAQATYSGLESQSVSGCYGAGYSGQNSMGGYD
B4: PDZ and LIM domain protein 1 (Homo sapiens), O00151 (parent)
chain: MTTQQIDLQGPGPWGFRLVGGKDFEQPLAISRVTPGSKAALANLCIGDVITAIDGENTSNMTHLEAQNRIKGCTDNLTLTVARSEHKVWSPLVTEEGKRHPYKMNLASEPQEVLHIGSAHNRSAMPFTASPASSTTARVITNQYNNPAGLYSSENISNFNNALESKTAASGVEANSRPLDHAQPPSSLVIDKESEVYKMLQEKQELNEPPKQSTSFLVLQEILESEEKGDPNKPSGFRSVKAPVTKVAASIGNAQKLPMCDKCGTGIVGVFVKLRDRHRHPECYVCTDCGTNLKQKGHFFVEDQIYCEKHARERVTPPEGYEVVTVFPK
B5: Ribosome-recycling factor, mitochondrial (Homo sapiens), Q96E11 (parent)
chain: MALGLKCFRMVHPTFRNYLAASIRPVSEVTLKTVHERQHGHRQYMAYSAVPVRHFATKKAKAKGKGQSQTRVNINAALVEDIINLEEVNEEMKSVIEALKDNFNKTLNIRTSPGSLDKIAVVTADGKLALNQISQISMKSPQLILVNMASFPECTAAAIKAIRESGMNLNPEVEGTLIRVPIPQVTREHREMLVKLAKQNTNKAKDSLRKVRTNSMNKLKKSKDTVSEDTIRLIEKQISQMADDTVAELDRHLAVKTKELLG
partner: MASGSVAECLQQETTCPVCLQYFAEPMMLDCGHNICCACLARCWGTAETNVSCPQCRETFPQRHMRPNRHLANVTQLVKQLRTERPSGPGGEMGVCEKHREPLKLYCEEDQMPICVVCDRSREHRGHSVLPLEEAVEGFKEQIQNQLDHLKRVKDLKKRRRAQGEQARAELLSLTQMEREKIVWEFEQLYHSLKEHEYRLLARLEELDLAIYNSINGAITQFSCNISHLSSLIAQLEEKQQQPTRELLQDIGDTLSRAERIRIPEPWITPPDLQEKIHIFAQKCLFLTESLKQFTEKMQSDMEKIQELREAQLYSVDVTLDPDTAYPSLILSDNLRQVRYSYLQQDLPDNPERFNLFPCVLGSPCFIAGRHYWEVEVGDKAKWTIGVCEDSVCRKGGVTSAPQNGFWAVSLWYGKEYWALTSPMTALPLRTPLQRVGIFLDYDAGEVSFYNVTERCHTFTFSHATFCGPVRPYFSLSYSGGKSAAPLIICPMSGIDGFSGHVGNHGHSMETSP
B6: TBC1 domain family member 22B (Homo sapiens), Q9NU19 (parent)
chain: B1 chain
partner: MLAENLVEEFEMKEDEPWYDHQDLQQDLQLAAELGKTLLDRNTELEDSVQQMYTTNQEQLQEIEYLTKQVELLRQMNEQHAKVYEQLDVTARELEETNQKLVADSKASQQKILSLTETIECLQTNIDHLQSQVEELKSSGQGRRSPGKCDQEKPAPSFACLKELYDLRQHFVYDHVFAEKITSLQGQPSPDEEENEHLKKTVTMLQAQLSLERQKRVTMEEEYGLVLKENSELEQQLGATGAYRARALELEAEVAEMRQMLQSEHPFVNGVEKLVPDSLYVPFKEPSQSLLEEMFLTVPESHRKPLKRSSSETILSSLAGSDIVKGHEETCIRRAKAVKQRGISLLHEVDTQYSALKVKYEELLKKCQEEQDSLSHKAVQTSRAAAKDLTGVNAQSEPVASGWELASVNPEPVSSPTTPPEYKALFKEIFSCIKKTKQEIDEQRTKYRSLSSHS

Variants of: B1
Conditions: with fxr2_human FXR2, P51116
fxr2_human FXR2, P51116, sequence (P51116 whole entry): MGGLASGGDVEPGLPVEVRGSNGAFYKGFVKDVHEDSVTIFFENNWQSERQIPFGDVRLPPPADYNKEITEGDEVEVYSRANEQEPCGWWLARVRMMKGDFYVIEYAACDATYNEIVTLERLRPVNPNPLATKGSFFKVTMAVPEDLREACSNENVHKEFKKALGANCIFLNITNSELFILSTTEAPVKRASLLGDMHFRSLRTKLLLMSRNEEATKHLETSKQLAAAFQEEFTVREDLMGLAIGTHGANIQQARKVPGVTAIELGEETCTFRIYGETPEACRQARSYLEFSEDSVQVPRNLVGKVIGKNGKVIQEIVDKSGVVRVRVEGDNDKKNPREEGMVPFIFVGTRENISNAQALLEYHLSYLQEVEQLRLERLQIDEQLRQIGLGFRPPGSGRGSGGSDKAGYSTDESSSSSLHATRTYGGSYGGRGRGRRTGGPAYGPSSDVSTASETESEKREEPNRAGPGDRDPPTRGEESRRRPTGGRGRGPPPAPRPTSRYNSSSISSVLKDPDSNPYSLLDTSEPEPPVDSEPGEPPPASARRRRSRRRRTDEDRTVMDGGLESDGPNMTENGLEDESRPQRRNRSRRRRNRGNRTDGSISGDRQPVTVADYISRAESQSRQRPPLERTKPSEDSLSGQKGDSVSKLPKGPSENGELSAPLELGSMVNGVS

Row | effect of a mutation on the interaction | Variant
1 | disrupting interaction strength | A349T

Variants of: B1
Conditions: with ikzf3_human IKZF3, Q9UKT9
ikzf3_human IKZF3, Q9UKT9, sequence (Q9UKT9 whole entry): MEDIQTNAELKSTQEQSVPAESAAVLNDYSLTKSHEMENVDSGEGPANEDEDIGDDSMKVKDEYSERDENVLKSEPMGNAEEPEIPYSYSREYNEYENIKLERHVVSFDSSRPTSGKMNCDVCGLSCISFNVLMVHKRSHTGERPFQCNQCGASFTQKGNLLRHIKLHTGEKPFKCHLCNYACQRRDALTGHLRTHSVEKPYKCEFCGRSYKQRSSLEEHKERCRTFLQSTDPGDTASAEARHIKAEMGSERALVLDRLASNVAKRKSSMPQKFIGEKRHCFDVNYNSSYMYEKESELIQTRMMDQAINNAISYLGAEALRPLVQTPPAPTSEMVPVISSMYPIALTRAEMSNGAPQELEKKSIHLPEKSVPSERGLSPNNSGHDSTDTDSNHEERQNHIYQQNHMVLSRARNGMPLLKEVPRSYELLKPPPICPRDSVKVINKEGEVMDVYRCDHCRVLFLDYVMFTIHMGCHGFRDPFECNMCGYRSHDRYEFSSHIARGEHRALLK

Row | effect of a mutation on the interaction | Variant
2 | disrupting interaction strength | A349T

Variants of: B1
Conditions: with tacc3_human TACC3, Q9Y6A5

Row | effect of a mutation on the interaction | Variant
3 | disrupting interaction strength | A349T

Variants of: B1
Conditions: with tri23_human TRIM23, P36406
tri23_human TRIM23, P36406, sequence (P36406 whole entry): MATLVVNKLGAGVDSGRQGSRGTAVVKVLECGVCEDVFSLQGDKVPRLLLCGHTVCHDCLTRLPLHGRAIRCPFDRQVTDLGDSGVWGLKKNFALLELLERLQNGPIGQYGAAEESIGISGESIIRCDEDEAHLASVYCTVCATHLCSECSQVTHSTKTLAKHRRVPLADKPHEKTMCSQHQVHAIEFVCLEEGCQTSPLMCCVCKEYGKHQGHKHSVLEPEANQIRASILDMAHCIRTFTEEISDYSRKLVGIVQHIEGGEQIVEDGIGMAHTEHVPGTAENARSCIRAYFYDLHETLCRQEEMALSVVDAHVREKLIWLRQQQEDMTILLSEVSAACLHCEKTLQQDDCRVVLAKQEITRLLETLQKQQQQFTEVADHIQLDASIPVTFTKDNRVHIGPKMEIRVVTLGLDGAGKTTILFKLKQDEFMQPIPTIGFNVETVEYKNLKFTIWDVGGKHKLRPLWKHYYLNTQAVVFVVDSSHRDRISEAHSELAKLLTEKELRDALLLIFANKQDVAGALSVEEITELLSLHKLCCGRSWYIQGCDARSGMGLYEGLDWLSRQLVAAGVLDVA

Row | effect of a mutation on the interaction | Variant
4 | disrupting interaction strength | A349T

Variants of: B1
Conditions: with pnma5_human PNMA5, Q96PV4
pnma5_human PNMA5, Q96PV4, sequence (Q96PV4 whole entry): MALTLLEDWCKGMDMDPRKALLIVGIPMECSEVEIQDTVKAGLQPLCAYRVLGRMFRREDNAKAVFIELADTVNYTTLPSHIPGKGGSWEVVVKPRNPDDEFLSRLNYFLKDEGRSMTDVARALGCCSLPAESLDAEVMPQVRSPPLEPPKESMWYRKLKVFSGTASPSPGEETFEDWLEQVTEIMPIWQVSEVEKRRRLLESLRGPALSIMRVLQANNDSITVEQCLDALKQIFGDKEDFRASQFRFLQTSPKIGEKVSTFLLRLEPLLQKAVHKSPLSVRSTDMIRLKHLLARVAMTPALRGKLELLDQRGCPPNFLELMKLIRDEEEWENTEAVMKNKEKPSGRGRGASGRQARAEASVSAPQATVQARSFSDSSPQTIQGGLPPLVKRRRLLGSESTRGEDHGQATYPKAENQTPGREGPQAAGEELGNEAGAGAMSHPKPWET

Row | effect of a mutation on the interaction | Variant
5 | disrupting interaction strength | A349T

Variants of: B2
Conditions: with cetn1_human CETN1, Q12798
cetn1_human CETN1, Q12798, sequence (Q12798 whole entry): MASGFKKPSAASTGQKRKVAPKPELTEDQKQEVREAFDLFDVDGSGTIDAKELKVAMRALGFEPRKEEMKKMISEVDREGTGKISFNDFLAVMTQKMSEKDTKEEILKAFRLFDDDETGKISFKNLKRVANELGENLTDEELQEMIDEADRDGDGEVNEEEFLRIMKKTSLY

Row | effect of a mutation on the interaction | Variant
6 | with no effect | M469T

Variants of: B2
Conditions: with cetn2_human CETN2, P41208
cetn2_human CETN2, P41208, sequence (P41208 whole entry): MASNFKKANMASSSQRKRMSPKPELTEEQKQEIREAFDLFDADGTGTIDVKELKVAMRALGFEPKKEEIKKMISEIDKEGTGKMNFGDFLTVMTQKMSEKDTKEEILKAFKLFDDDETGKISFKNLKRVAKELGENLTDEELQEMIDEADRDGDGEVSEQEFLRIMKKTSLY

Row | effect of a mutation on the interaction | Variant
7 | with no effect | M469T

Variants of: B3
Conditions: with hnrl1_human HNRNPUL1, Q9BUJ2
hnrl1_human HNRNPUL1, Q9BUJ2, sequence (Q9BUJ2 whole entry): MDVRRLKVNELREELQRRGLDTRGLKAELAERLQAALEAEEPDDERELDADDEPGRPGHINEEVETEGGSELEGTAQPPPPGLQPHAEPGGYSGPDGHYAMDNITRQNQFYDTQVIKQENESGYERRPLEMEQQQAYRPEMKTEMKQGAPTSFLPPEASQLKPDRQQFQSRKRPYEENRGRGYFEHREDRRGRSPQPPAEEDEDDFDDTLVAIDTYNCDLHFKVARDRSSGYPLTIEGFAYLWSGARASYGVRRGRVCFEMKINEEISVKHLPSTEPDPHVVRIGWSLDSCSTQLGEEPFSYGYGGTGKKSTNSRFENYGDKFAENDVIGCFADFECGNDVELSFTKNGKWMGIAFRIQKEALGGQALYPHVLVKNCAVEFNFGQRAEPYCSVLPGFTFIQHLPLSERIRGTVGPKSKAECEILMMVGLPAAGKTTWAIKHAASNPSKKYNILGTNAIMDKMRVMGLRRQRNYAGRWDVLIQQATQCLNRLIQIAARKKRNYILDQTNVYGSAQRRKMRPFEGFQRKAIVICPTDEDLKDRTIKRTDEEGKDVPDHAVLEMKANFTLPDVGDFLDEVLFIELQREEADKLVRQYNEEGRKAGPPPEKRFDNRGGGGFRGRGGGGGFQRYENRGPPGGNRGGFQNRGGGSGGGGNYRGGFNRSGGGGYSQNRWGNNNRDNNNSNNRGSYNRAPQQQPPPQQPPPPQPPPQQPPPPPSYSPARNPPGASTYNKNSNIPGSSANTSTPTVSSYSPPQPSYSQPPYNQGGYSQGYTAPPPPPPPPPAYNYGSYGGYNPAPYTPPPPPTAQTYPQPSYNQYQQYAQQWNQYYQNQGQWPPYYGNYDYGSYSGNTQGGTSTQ

Row | effect of a mutation on the interaction | Variant
8 | with no effect | T48A

Variants of: B4
Conditions: with gfap_human GFAP

Row | effect of a mutation on the interaction | Variant
9 | with no effect | A249V

Variants of: B4
Conditions: with actn4_human ACTN4, O43707
actn4_human ACTN4, O43707, sequence (O43707 whole entry): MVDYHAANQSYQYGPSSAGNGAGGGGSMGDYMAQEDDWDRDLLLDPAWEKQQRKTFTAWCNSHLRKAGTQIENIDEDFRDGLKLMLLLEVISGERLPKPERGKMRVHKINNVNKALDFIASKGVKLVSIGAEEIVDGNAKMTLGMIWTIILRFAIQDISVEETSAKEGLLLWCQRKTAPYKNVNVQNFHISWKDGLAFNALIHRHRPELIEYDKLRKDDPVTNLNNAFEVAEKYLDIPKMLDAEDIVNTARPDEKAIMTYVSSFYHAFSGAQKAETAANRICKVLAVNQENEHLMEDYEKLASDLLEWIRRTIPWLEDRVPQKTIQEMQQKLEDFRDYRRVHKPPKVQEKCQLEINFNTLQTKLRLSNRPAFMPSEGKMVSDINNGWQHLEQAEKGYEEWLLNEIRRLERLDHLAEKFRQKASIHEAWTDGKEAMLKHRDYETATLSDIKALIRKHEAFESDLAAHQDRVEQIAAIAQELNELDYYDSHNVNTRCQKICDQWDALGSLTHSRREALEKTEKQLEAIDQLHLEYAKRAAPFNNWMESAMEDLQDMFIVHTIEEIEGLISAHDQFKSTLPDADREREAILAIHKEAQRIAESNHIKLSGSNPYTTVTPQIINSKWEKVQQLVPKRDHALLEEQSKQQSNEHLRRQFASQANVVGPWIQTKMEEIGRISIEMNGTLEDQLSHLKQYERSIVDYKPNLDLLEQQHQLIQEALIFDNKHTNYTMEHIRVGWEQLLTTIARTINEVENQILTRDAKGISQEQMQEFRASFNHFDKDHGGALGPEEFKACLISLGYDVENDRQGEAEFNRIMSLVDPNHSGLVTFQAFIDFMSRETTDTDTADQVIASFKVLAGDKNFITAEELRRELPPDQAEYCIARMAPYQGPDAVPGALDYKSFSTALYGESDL

Row | effect of a mutation on the interaction | Variant
10 | with no effect | A249V

Variants of: B5
Conditions: with tri27_human TRIM27, P14373

Row | effect of a mutation on the interaction | Variant
11 | disrupting interaction strength | G175E

Variants of: B6
Conditions: with cdr2_human CDR2, Q01850

Row | effect of a mutation on the interaction | Variant
12 | disrupting interaction strength | A349T
